Test results: article PMC8561282 (Haematologica, 2021)

Molecular target: recombinant glyceraldehyde 3-phosphate dehydrogenase (GAPDH) tetramer (UniProt P04406 1-335)
Assay: ITC

recombinant glyceraldehyde 3-phosphate dehydrogenase (GAPDH) tetramer, sequence (P04406 whole entry): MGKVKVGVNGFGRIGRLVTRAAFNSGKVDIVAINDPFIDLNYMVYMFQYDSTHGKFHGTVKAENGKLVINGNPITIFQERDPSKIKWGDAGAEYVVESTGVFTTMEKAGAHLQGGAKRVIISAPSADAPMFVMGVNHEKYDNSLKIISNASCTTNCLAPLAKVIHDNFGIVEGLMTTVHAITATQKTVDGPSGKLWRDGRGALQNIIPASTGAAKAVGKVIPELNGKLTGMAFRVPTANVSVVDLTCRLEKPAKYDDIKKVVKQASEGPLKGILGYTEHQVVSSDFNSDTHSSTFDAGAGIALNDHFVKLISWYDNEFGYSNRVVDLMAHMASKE

| Kd | Binder |
| --- | --- |
| 44.8 mM | MEELQDDYEDMMEENLEQEEYEDPDIPESQ (domain or fragment) [recombinantly expressed AE1 peptide spanning residues 1-30] |
| 2.56 mM | recombinantly expressed band 3 (AE1) peptide, residues 1-56 (domain or fragment) MEELQDDYEDMMEENLEQEEYEDPDIPESQMEEPAAHDTEATATDYHTTSHPGTHK |
